Test results from paper PMC5591402.

B1: wild-type N2 VHH antibody [camelid] / TAMRA-labeled α-synuclein peptide [modified: tetramethylrhodamine (TAMRA) fluorophore, position not stated; tetramethylrhodamine (TAMRA) fluorophore, position not stated] [not stated] (parent)
chain 1: GQLVESGGGSVQAGGSLRLSCAASGIDSSSYCMGWFRQRPGKEREGVARINGLGGVKTAYADSVKDRFTISRDNAENTVYLQMNSLKPEDTAIYYCAAKFSPGYCGGSWSNFGYWGQGTQVTVSSH
chain 2: GYQDYEPEA

Variants of: B1
Experiment: fluorescence polarization
Settings: with TAMRA-labeled α-synuclein peptide [modified: tetramethylrhodamine (TAMRA) fluorophore, 400 nM VHH, 2 nM TAMRA-labeled α-synuclein peptide, parent: 1, read off a plot

ratio to parent	Variant
0.015	chain 1 GQLVESGGGSVQAGGSLRLSCAASGIDSSSYCMGWFRQRPGKEREGVARIAGLGGVKTAYADSVKDRFTISRDNAENTVYLQMNSLKPEDTAIYYCAAKFSPGYCGGSWSNFGYWGQGTQVTVSSH [chain 1 N51A]
0.41	chain 1 GQLVESGGGSVQAGGSLRLSCAASGIDSSSYCMGWFRQRPGKEREGVARANGLGGVKTAYADSVKDRFTISRDNAENTVYLQMNSLKPEDTAIYYCAAKFSPGYCGGSWSNFGYWGQGTQVTVSSH [chain 1 I50A]
0.1	chain 1 GQLVESGGGSVQAGGSLRLSCAASGIDSSSYCMGWFRQRPGKEREGVARINGLGGVATAYADSVKDRFTISRDNAENTVYLQMNSLKPEDTAIYYCAAKFSPGYCGGSWSNFGYWGQGTQVTVSSH [chain 1 K57A]
0.075	chain 1 GQLVESGGGSVQAGGSLRLSCAASGIDSSSYCMGWFRQRPGKEREGVARINGLGGVKTAYADSVKDRFTISRDNAENTVYLQMNSLKPEDTAIYYCAAKFSPGYCGGSASNFGYWGQGTQVTVSSH [chain 1 W109A]
0.07	chain 1 GQLVESGGGSVQAGGSLRLSCAASGIDSSSYCMGWFRQRPGKEREGVARINGLGGVKTAYADSVKDRFTISRDNAENTVYLQMNSLKPEDTAIYYCAAKFSPGACGGSWSNFGYWGQGTQVTVSSH [chain 1 Y104A]
0.015	chain 1 GQLVESGGGSVQAGGSLRLSCAASGIDSSSYCMGWFRQRPGKEREGVARINGLGAVKTAYADSVKDRFTISRDNAENTVYLQMNSLKPEDTAIYYCAAKFSPGYCGGSWSNFGYWGQGTQVTVSSH [chain 1 G55A]
-0.01	chain 1 GQLVESGGGSVQAGGSLRLSCAASGIDSSSYCMGWFRQRPGKEREGVARINALGGVKTAYADSVKDRFTISRDNAENTVYLQMNSLKPEDTAIYYCAAKFSPGYCGGSWSNFGYWGQGTQVTVSSH [chain 1 G52A]
